According to the RNAGym collection of RNA variant scans (doi:10.1093/molbev/msab373):

B1: Azoarcus group I ribozyme (parent)
chain: GUGCCUUGCGCCGGGAAACCACGCAAGGGAUGGUGUCAAAUUCGGCGAAACCUAAGCGCCCGCCCGGGCGUAUGGCAACGCCGAGCCAAGCUUCGGCGCCUGCGCCGAUGAAGGUGUAGAGACUAGACGGCACCCACCUAAGGCAAACGCUAUGGUGAAGGCAUAGUCCAGGGAGUGGCGAAAGUCACACAAACCGG

Variants of: B1
Experiment: reverse-splicing fitness (ratio to wild type); higher = more active; in vitro selection; Mg2+ level not given
Summary of the method: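 An in vitro group I ribozyme library with randomized positions was T7-transcribed and gel-purified. In triplicate, 10 pmol RNA in EPPS pH 7.5 was reacted with 50 pmoles of a 30-nt RNA substrate for 1 h at 37 °C across several added MgCl2 levels (1–48 mM), then stopped with EDTA. Products were reverse transcribed from a substrate-complementary primer, PCR-amplified and sequenced (HiSeq 4000). Fitness is a variant's read proportion after selection over that before, normalised to wild type.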

Row | Variant | reverse-splicing fitness
1 | GUGCCUUGCGCCGGGAAACCACGCAAGGGAUGGUGUCAAAUUCGGCGAAACCUAAGCGCCCGCCCGGGCGUAUGGCAACGCUGAGCCAAGCUUCGGCGCCUGCGCCGAUGCAGGUGUAGAGACUAGACGGCACCCACCUAAGGCCAACGUUAUGGUGAAGGCAUAGUCGAGGGAGAGGCGAAAGUCACACAAACCGG | 0.0257
2 | GUGCCUUGCGCCGGGAAACCACGCAAGGGAUGGUGUCAAAUUCGGCGAAACCUAAGCGCCCGCCCGGGCGUAUGGCAACGCUGAGCCAAGCUUCGGCGCCUGCGCCGAUGCAGGUGUAGAGACUAGACGGCACCCACCUAAGGCCAACGUUAUGGUGAAGGCAUAGUCGAGGGAGCGGCGAAAGUCACACAAACCGG | 0.0168
3 | GUGCCUUGCGCCGGGAAACCACGCAAGGGAUGGUGUCAAAUUCGGCGAAACCUAAGCGCCCGCCCGGGCGUAUGGCAACGCUGAGCCAAGCUUCGGCGCCUGCGCCGAUGCAGGUGUAGAGACUAGACGGCACCCACCUAAGGCCAACGUUAUGGUGAAGGCAUAGUCGAGGGAGGGGCGAAAGUCACACAAACCGG | 0.0077
4 | GUGCCUUGCGCCGGGAAACCACGCAAGGGAUGGUGUCAAAUUCGGCGAAACCUAAGCGCCCGCCCGGGCGUAUGGCAACGCUGAGCCAAGCUUCGGCGCCUGCGCCGAUGCAGGUGUAGAGACUAGACGGCACCCACCUAAGGCCAACGGUAUGGUGAAGGCAUAGUCUAGGGAGGGGCGAAAGUCACACAAACCGG | 0.00606
5 | GUGCCUUGCGCCGGGAAACCACGCAAGGGAUGGUGUCAAAUUCGGCGAAACCUAAGCGCCCGCCCGGGCGUAUGGCAACGCUGAGCCAAGCUUCGGCGCCUGCGCCGAUGCAGGUGUAGAGACUAGACGGCACCCACCUAAGGCCAACGGUAUGGUGAAGGCAUAGUCUAGGGAGAGGCGAAAGUCACACAAACCGG | 0.00919
6 | GUGCCUUGCGCCGGGAAACCACGCAAGGGAUGGUGUCAAAUUCGGCGAAACCUAAGCGCCCGCCCGGGCGUAUGGCAACGCUGAGCCAAGCUUCGGCGCCUGCGCCGAUGCAGGUGUAGAGACUAGACGGCACCCACCUAAGGCCAACGGUAUGGUGAAGGCAUAGUCUAGGGAGCGGCGAAAGUCACACAAACCGG | 0.0106
7 | GUGCCUUGCGCCGGGAAACCACGCAAGGGAUGGUGUCAAAUUCGGCGAAACCUAAGCGCCCGCCCGGGCGUAUGGCAACGCUGAGCCAAGCUUCGGCGCCUGCGCCGAUGCAGGUGUAGAGACUAGACGGCACCCACCUAAGGCCAACGGUAUGGUGAAGGCAUAGUCGAGGGAGAGGCGAAAGUCACACAAACCGG | 0.00798
8 | GUGCCUUGCGCCGGGAAACCACGCAAGGGAUGGUGUCAAAUUCGGCGAAACCUAAGCGCCCGCCCGGGCGUAUGGCAACGCUGAGCCAAGCUUCGGCGCCUGCGCCGAUGCAGGUGUAGAGACUAGACGGCACCCACCUAAGGCCAACGGUAUGGUGAAGGCAUAGUCGAGGGAGCGGCGAAAGUCACACAAACCGG | 0.00811
9 | GUGCCUUGCGCCGGGAAACCACGCAAGGGAUGGUGUCAAAUUCGGCGAAACCUAAGCGCCCGCCCGGGCGUAUGGCAACGCUGAGCCAAGCUUCGGCGCCUGCGCCGAUGCAGGUGUAGAGACUAGACGGCACCCACCUAAGGCCAACGGUAUGGUGAAGGCAUAGUCGAGGGAGGGGCGAAAGUCACACAAACCGG | 0.0058
10 | GUGCCUUGCGCCGGGAAACCACGCAAGGGAUGGUGUCAAAUUCGGCGAAACCUAAGCGCCCGCCCGGGCGUAUGGCAACGCUGAGCCAAGCUUCGGCGCCUGCGCCGAUGCAGGUGUAGAGACUAGACGGCACCCACCUAAGGCCAACGGUAUGGUGAAGGCAUAGUCGAGGGAGUGGCGAAAGUCACACAAACCGG | 0.00696
11 | GUGCCUUGCGCCGGGAAACCACGCAAGGGAUGGUGUCAAAUUCGGCGAAACCUAAGCGCCCGCCCGGGCGUAUGGCAACGCUGAGCCAAGCUUCGGCGCCUGCGCCGAUGCAGGUGUAGAGACUAGACGGCACCCACCUAAGGCCAACGGUAUGGUGAAGGCAUAGUCUAGGGAGUGGCGAAAGUCACACAAACCGG | 0.00936
12 | GUGCCUUGCGCCGGGAAACCACGCAAGGGAUGGUGUCAAAUUCGGCGAAACCUAAGCGCCCGCCCGGGCGUAUGGCAACGCUGAGCCAAGCUUCGGCGCCUGCGCCGAUGCAGGUGUAGAGACUAGACGGCACCCACCUAAGGCCAACGGUAUGGUGAAGGCAUAGUCAAGGGAGUGGCGAAAGUCACACAAACCGG | 0.00742
13 | GUGCCUUGCGCCGGGAAACCACGCAAGGGAUGGUGUCAAAUUCGGCGAAACCUAAGCGCCCGCCCGGGCGUAUGGCAACGCUGAGCCAAGCUUCGGCGCCUGCGCCGAUGCAGGUGUAGAGACUAGACGGCACCCACCUAAGGCCAACGUUAUGGUGAAGGCAUAGUCAAGGGAGUGGCGAAAGUCACACAAACCGG | 0.00854
14 | GUGCCUUGCGCCGGGAAACCACGCAAGGGAUGGUGUCAAAUUCGGCGAAACCUAAGCGCCCGCCCGGGCGUAUGGCAACGCUGAGCCAAGCUUCGGCGCCUGCGCCGAUGCAGGUGUAGAGACUAGACGGCACCCACCUAAGGCCAACGUUAUGGUGAAGGCAUAGUCUAGGGAGUGGCGAAAGUCACACAAACCGG | 0.00891
15 | GUGCCUUGCGCCGGGAAACCACGCAAGGGAUGGUGUCAAAUUCGGCGAAACCUAAGCGCCCGCCCGGGCGUAUGGCAACGCUGAGCCAAGCUUCGGCGCCUGCGCCGAUGCAGGUGUAGAGACUAGACGGCACCCACCUAAGGCCAACGUUAUGGUGAAGGCAUAGUCGAGGGAGUGGCGAAAGUCACACAAACCGG | 0.00727
